Paper PMC8983731, “Structural basis for the SUMO protease activity of the atypical ubiquitin-specific protease USPL1” (Nature Communications, 2022)

What was measured:
[1] = target: T1, ∆14-SUMO2 precursor C48S/G93C with dehydroalanine at position 93 (SUMO2-DHA) (human, UniProt P61956 15-95, C48S | G93C, dehydroalanine (DHA) at position 93 (made from Cys93 of G93C with 2,5-dibromohexanediamide)); assay: cross-linking; active site probe assay: protease at 2 μM with SUMO2-DHA at 6 μM, 30 °C, 3 h; formation of the covalent thioether adduct; USPL1 wild type and mutants for 3 h; conditions: both partners purified
T1 construct: SUMO2 precursor, human, with the immature C-terminal Val-Tyr after the di-glycine motif; Cys93 is turned into dehydroalanine, an electrophilic trap that reacts with the active site cysteine of the protease (Cys236 of USPL1); also called SUMO2 DHA precursor; ∆14-Sumo2 DHA; source: E. coli Rosetta (DE3), purified (Ni Sepharose, Resource Q); treated with 2,5-dibromohexanediamide and purified again …

[2] = target: T1, ∆14-SUMO2 precursor C48S/G93C with …; assay: cell-based or functional assay

T1 sequence (P61956 15-95 C48S/G93C): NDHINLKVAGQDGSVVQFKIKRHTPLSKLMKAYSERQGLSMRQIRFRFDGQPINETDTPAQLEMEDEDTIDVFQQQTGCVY

B1: USPL1 catalytic domain Y451F (enzyme, human, UniProt Q5W0Q7 212-514, looked up)
chain: MPLESKCTSFPQALCVQWKNAYALCWLDCILSALVHSEELKNTVTGLCSKEESIFWRLLTKYNQANTLLYTSQLSGVKDGDCKKLTSEIFAEIETCLNEVRDEIFISLQPQLRCTLGDMESPVFAFPLLLKLETHIEKLFLYSFSWDFECSQCGHQYQNRHMKSLVTFTNVIPEWHPLNAAHFGPCNNCNSKSQIRKMVLEKVSPIFMLHFVEGLPQNDLQHYAFHFEGCLYQITSVIQFRANNHFITWILDADGSWLECDDLKGPCSERHKKFEVPASEIHIVIWERKISQVTDKEAACLPL
notes: USPL1, human, catalytic domain Met212-Leu514, point mutant; Made by site-directed mutagenesis of pET28a-USPL1CD; source: E. coli Rosetta (DE3), purified (Ni Sepharose, Resource Q anion exchange); not shown: His tag (from the vector pET28a)
B1 was tested, and the “fold decrease of binding against wild type” value [1] was 4 fold and the “proteolytic activity against SUMO2 substrates, fold decrease against wild type” value [2] was 4 fold.
